PMC2756588

T1: Cdc25, P04821
T1 sequence (P04821 50-136, looked up): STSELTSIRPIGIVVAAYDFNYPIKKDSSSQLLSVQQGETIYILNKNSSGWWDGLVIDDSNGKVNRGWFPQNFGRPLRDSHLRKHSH

T2: Boi2, P39969
T2 sequence (P39969 32-116, looked up): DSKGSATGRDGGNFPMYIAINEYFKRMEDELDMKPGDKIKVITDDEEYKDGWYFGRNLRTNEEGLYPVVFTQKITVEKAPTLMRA

T3: Lsb3, P43603
T3 sequence (P43603 385-451, looked up): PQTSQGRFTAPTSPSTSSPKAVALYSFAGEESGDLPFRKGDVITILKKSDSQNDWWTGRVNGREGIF

T4: Pex13, P80667
T4 sequence (P80667 295-386, looked up): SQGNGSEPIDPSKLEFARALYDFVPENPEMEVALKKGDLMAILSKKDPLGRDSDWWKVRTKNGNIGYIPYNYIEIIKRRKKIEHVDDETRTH

T5: Sla1-3, P32790
T5 sequence (P32790 344-424, looked up): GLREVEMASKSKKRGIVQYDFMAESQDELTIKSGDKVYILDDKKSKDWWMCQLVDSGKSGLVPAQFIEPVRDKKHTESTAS

T6: Abp1, P15891
T6 sequence (P15891 535-592, looked up): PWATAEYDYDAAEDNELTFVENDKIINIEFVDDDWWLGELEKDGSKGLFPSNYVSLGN

T7: Boi1, P38041
T7 sequence (P38041 1-86, looked up): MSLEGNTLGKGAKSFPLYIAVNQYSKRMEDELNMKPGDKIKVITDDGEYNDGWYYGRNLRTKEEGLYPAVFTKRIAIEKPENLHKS

T8: Bbc1, P47068
T8 sequence (P47068 1-78, looked up): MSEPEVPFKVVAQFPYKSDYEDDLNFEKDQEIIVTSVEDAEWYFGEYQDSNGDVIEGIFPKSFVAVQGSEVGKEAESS

T9: Lsb1, P53281
T9 sequence (P53281 45-122, looked up): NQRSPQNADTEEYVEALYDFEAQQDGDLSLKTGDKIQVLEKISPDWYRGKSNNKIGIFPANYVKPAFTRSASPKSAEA

T10: Bud14, P27637
T10 sequence (P27637 247-328, looked up): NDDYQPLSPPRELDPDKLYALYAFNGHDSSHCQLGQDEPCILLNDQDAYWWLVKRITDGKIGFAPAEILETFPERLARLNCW

T11: Lsb4, P32793
T11 sequence (P32793 402-468, looked up): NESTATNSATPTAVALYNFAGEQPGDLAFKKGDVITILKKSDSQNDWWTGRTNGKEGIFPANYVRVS

T12: Nbp2, Q12163
T12 sequence (Q12163 103-180, looked up): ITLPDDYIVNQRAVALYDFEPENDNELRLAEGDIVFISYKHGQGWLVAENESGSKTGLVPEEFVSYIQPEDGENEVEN

T13: Pin3, Q06449
T13 sequence (Q06449 53-122, looked up): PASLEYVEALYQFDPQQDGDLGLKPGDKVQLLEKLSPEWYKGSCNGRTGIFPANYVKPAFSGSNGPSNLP

T14: Fus1, P11710
T14 sequence (P11710 432-512, looked up): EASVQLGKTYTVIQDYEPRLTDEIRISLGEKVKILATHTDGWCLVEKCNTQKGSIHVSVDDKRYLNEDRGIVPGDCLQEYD

T15: Hof1, Q05080
T15 sequence (Q05080 590-669, looked up): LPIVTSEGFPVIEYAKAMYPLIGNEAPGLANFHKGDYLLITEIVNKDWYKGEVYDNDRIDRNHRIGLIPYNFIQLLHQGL

T16: Hse1, P38753
T16 sequence (P38753 208-285, looked up): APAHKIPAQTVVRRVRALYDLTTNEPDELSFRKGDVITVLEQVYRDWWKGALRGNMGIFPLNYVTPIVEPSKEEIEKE

T17: Myo5, Q04439
T17 sequence (Q04439 1072-1160, looked up): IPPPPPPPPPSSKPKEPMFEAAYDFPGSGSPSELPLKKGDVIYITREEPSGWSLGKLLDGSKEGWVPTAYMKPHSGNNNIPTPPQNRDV

T18: Bzz1-2, P38822
T18 sequence (P38822 568-633, looked up): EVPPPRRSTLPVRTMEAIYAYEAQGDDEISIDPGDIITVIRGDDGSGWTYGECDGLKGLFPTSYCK

T19: Bzz1-1, P38822
T19 sequence (P38822 478-572, looked up): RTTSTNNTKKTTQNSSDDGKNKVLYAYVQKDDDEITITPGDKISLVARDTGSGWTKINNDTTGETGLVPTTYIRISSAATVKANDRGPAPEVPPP

T20: Sla1-2, P32790
T20 sequence (P32790 60-140, looked up): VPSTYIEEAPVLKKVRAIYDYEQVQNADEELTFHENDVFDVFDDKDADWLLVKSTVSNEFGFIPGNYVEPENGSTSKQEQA

T21: Cyk3, Q07533
T21 sequence (Q07533 1-83, looked up): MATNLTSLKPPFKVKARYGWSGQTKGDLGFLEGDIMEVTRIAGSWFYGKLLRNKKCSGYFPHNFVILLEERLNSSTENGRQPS


Legend:
Assay in all cases: SPOT array
Cdc25, P04821 = target: T1, Cdc25, P04821; conditions: median of control spots 969
Boi2, P39969 = target: T2, Boi2, P39969; conditions: median of control spots 1161
Lsb3, P43603 = target: T3, Lsb3, P43603; conditions: median of control spots 406
Bem1-1, P29366 = conditions: median of control spots 4282
Pex13, P80667 = target: T4, Pex13, P80667; conditions: median of control spots 1341
Sla1-3, P32790 = target: T5, Sla1-3, P32790; conditions: median of control spots 5475
Rvs167, P39743 = conditions: median of control spots 2707
Abp1, P15891 = target: T6, Abp1, P15891; conditions: median of control spots 935
Boi1, P38041 = target: T7, Boi1, P38041; conditions: median of control spots 1162
Bbc1, P47068 = target: T8, Bbc1, P47068; conditions: median of control spots 796
Lsb1, P53281 = target: T9, Lsb1, P53281; conditions: median of control spots 388
Bud14, P27637 = target: T10, Bud14, P27637; conditions: median of control spots 956
Myo3, P36006 = conditions: median of control spots 468
Lsb4, P32793 = target: T11, Lsb4, P32793; conditions: median of control spots 397
Nbp2, Q12163 = target: T12, Nbp2, Q12163; conditions: median of control spots 357
Pin3, Q06449 = target: T13, Pin3, Q06449; conditions: median of control spots 2171
Fus1, P11710 = target: T14, Fus1, P11710; conditions: median of control spots 1200
Sho1, P40073 = conditions: median of control spots 1148
GST = conditions: median of control spots 978
Hof1, Q05080 = target: T15, Hof1, Q05080; conditions: median of control spots 4086
Hse1, P38753 = target: T16, Hse1, P38753; conditions: median of control spots 1727
Myo5, Q04439 = target: T17, Myo5, Q04439; conditions: median of control spots 471
Bzz1-2, P38822 = target: T18, Bzz1-2, P38822; conditions: median of control spots 4538
Bzz1-1, P38822 = target: T19, Bzz1-1, P38822; conditions: median of control spots 4446
Bem1-2, P29366 = conditions: median of control spots 4347
Sla1-2, P32790 = target: T20, Sla1-2, P32790; conditions: median of control spots 712
Cyk3, Q07533 = target: T21, Cyk3, Q07533; conditions: median of control spots 1451

Sequence of Bem1-1, P29366 (P29366 55-141): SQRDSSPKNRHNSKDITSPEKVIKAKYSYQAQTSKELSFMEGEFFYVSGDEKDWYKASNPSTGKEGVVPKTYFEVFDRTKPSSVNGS
Sequence of Sho1, P40073 (P40073 287-367): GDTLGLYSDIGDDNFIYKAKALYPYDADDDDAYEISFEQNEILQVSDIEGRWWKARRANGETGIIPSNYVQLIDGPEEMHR
Sequence of Rvs167, P39743 (P39743 419-482): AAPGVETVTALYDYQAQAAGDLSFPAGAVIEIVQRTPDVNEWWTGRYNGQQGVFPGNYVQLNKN
Sequence of Bem1-2, P29366 (P29366 139-227): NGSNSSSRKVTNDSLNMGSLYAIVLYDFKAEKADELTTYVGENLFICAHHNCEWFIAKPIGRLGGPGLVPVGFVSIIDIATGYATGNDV

Row | Binder | SPOT intensity (Cdc25, P04821) | SPOT intensity (Boi2, P39969) | SPOT intensity (Lsb3, P43603) | SPOT intensity (Bem1-1, P29366) | SPOT intensity (Pex13, P80667) | SPOT intensity (Sla1-3, P32790) | SPOT intensity (Rvs167, P39743) | SPOT intensity (Abp1, P15891) | SPOT intensity (Boi1, P38041) | SPOT intensity (Bbc1, P47068) | SPOT intensity (Lsb1, P53281) | SPOT intensity (Bud14, P27637) | SPOT intensity (Myo3, P36006) | SPOT intensity (Lsb4, P32793) | SPOT intensity (Nbp2, Q12163) | SPOT intensity (Pin3, Q06449) | SPOT intensity (Fus1, P11710) | SPOT intensity (Sho1, P40073) | SPOT intensity (GST) | SPOT intensity (Hof1, Q05080) | other results
1 | PLRRTVMSLPGNHDI | 16 | 0 | 0 | 1 | 31 | 0 | 0 | 24 | 0 | 0 | 75 | 2 | 23 | 0 | 18 | 72 | 1 | 12 | 0 | 0 | SPOT intensity (Hse1, P38753): 1; SPOT intensity (Myo5, Q04439): 12; SPOT intensity (Bzz1-2, P38822): 1; SPOT intensity (Bzz1-1, P38822): 1; SPOT intensity (Bem1-2, P29366): 6; SPOT intensity (Sla1-2, P32790): 3; SPOT intensity (Cyk3, Q07533): 0
2 | RHLKLVPSTPMDIPW | 14 | 0 | 0 | 189 | 99 | 290 | 43 | 37 | 0 | 1 | 14 | 8 | 81 | 6 | 3 | 329 | 1430 | 72 | 0 | 59 | SPOT intensity (Hse1, P38753): 134; SPOT intensity (Myo5, Q04439): 10; SPOT intensity (Bzz1-2, P38822): 411; SPOT intensity (Bzz1-1, P38822): 6; SPOT intensity (Bem1-2, P29366): 90; SPOT intensity (Sla1-2, P32790): 3; SPOT intensity (Cyk3, Q07533): 0
3 | IFLRISINFPLNYPN | 91 | 3 | 10 | 8 | 76 | 199 | 1 | 212 | 24 | 192 | 71 | 18 | 71 | 14 | 74 | 101 | 655 | 134 | 0 | 15 | SPOT intensity (Hse1, P38753): 143; SPOT intensity (Myo5, Q04439): 15; SPOT intensity (Bzz1-2, P38822): 70; SPOT intensity (Bzz1-1, P38822): 6; SPOT intensity (Bem1-2, P29366): 3; SPOT intensity (Sla1-2, P32790): 12; SPOT intensity (Cyk3, Q07533): 5
4 | NNQRRKPLLLNIGDH | 216 | 1 | 0 | 0 | 0 | 138 | 0 | 56 | 5 | 11 | 0 | 17 | 0 | 0 | 42 | 0 | 28 | 79 | 0 | 18 | SPOT intensity (Hse1, P38753): 50; SPOT intensity (Myo5, Q04439): 0; SPOT intensity (Bzz1-2, P38822): 5; SPOT intensity (Bzz1-1, P38822): 0; SPOT intensity (Bem1-2, P29366): 25; SPOT intensity (Sla1-2, P32790): 0; SPOT intensity (Cyk3, Q07533): 1
